Assay: soluble fraction after stress (log2 fold change); higher = more stays soluble; pooled small domains, quantitative proteomics
Settings: stress: 50 degC
Method in brief: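 Custom libraries of small protein domains were pooled and measured in a high-throughput format, with quantitative proteomics as the read-out. Each library was stressed at 50°C. The value is the log2 fold change in the amount of each protein that stays soluble after stress, used as a measure of aggregation propensity; higher values mean more of the protein stays soluble.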

| Sequence | soluble fraction (log2) |
| --- | --- |
| HMNAPKKPLSAYFLFSQEERLKVKAENPDYSITEVAKELGKRWATLNPDIKTVYEQRYQDARRIYETEMNT | -0.303 |
| HMAPREELIAIHEALDKLEREDPQVSQLVKLRYFVGMTMAEAADAMDLKKRAAEALWTYGKAWLHREIKKN | -2.85 |
| HMSSQGSLEKGYSALLDGRLDDAALAYGAALAANPMERDALLGLAYVAHSKGRREEAQALYRKVLR | 0.0715 |
| HMEDVSTLAVKQRIDDLVKQENPAKPLSDSDIVARLKTDGIYIARRTVAKYRMELNIPSSSARKRAQQFS | -0.833 |
| HMVETVQVVGAGQDIMPGSRINYSSLHYITVPRSYFHEDMFAKNNLVVGRIARAYVAKGEPLLAASLMPK | -2.54 |
| HMDTLTRAMVWTIIARAEGVDTTGGATWYAKAQEWVTAKGISDGENPNAAITRQELVTMLYRLAGEPAV | -2.78 |
| HMEPSQEFSLADMVAYDLTGYPKSAALRAAVGASLGIGYGNAKQFVYRLNHYGISKDDFHRAAQEALDGL | -0.87 |
| HMKIPPIMFVRAIMVAGRQSMAIMDIEGVGTGIIVRSGYSFSNGEGKVVRIGPDKVTVNWSGKHLDLAPG | -0.615 |
| HMKRWHVGDPIDALTAAGKVPSWSTIRQRFWKTIAALYPDIEQSERLQRGLAMLDEAGTSIELHHP | -1.01 |
| HMEDAWMKKELWDAIATLPKKQRLVMTMRLTNNHSYKEIAAILGISENSAKVSYHHAVERLKEKFK | -1.33 |
| HMDDVIDVYATYDKSAEGVLSNIQLFSNQKKTTPITPESGKIYIDVEGNYQFRWTGTQYATV | -0.111 |
| HMEALDPLTAREQEVLEMILSGKSNREIAAELHITENTVKTHAQSIYSKYDVRGRAKLISLLLKGEA | -0.102 |
| HMELDREALSDGLRRLSQLLAEDDIESRTLFRELAPGLKEQLGDDAVEKLAGHISRYEFEQAGALLATSG | -0.0341 |
| HMNDEFYAVVRESYAGYALVKPLDEDVGYDILSVSVKNLKVGDIIRLKVKNIKEIYPPEAEVLEVEVLQ | 0.00135 |
| HMITGREMDVLEALWSSEKPLVASDIPKMKPSLSISSVQLALRNLVKKKLVEVADIVYSGTVLSRSYRP | 0.0545 |
| HMNKITIDQAKEIALNHAKLTAEQVSFIRTESEFDDGIEKYNIEFYYNNQKYDYDINAVNGQIIQYDLEG | -0.0582 |
| HMGLLGTDISAETMIGYFKKIDLGFDEETQEVIVPSWRQDLLRDADIAEEVARFYGYDNIPTTLPSGEST | -0.122 |
| HMTIAEGLIFRFTEPFKPIDQYTYYIMGDNKVEQIPNFKTLEVMLAQRNQNYLSVRVIEKSQLDDILKEF | -4.04 |
| HMIFNENLKSAREKKGLSQKEVAEAIGVAKSTYSLYESGNREPNVQTIKRIADVLNVSADVLLGL | 0.00744 |
| HMTLVKRSAMVTAWSEFAGGRVNSKLIALQNGKAGDWIELENPQSGRKLRGRVQSDGSVRLGS | 0.169 |
| HMSHYDILEVDPKASATEIKQSFRKKSLQYHPDRNKSSDAHEYMTKITEAYNILGDKDKRRHYDMELKL | 0.442 |
| HMYNMEELAGHTEKVYNSLPEELKLVIKLREIENMSYDEISLKTGMPIGTVRSRLHRAREILVDSLKDY | -0.367 |
| HMAAEIGSGVVDAYDLRLRSQPSTDAETIIYLDNGAKLSVQEDLGDWYKVVSGTYTGYVSAEYVAYTPSPE | -1.13 |
| HMDRYVDEEKRFYWRSGEAYLNFSKYKDRSLAEVATVDPGFLRWMMEADFSPETKQIVERALEGEFPQKK | 0.123 |
| HMLHEFSGVVVSILADTGPSTLKQLHRSLISSDVKMDEKELMQILDEALSSGSVTSHRKGRYLYYSANK | -0.58 |

| Sequence | soluble fraction (log2) |
| --- | --- |
| HMAEKGIGRVNADWLNMRTSPGGEVLTVLKQGTELQVIGRSGSWLEVQHGNEQGYVSSRYITIQP | -0.17 |
| HMAPEQWYVLTSGQLPKGPYRLRHIVAMSKGDNWLVARKGAEQWTPLRHLPEFRQAQEANEYIQAIS | -0.968 |
| HMFDGYQWLKRDIIRGVYQPEEKLRMSLLTNRYGLGVGPLREALSQLVAEHLVTVVSQKGYRVAPM | -0.112 |
| HMNNVRIEHIDTIGTVRLHKKRGVKRVSLRIHQSGEIRVTQPLYLPFSAGVLFAKSHTEWIMKQKQK | -0.000591 |
| HMKPEDIALLEEIRDLLKEKKSVIVNLEYVNKDVARRIVDFISGGVFALNGHIQKVSNSIFLVAPMN | 0.00619 |
| HMGIKSSASLQEAAEKAQSAYYDIEHSGVATAVDIQRAWVAMVAAQIDAGEKLDSGTITLYERLKTST | 0.0423 |
| HMQTGRREALEAQLRETGGEAMLARLREIDPEAAARLHPADEKRVIRALEVYEETGKTITQHNLETKAVPP | 0.239 |
| HMAGTAFPVRIMLKGIDRIGLLNEITGYISVAMGVNMRKLNLSTEDGIFEGYIDMLVHDRTVLESMIDNL | -0.381 |
| HMKPSVEIKVNGGTGAGVVKKGGSITVTANEPAEGKVFTGWQDESGKIVSTQKEYTFTVAEGTTLTAVYED | 0.45 |
| HMNTSMIEHMDKSTFIRFVFTNPVTHDQAVAKLMEKHMWFSTEEKAEAEIDKLLNKTNSLIESGGKLTW | 0.0337 |
| HMEATILTATPEAAGQRLDAFLAETLPELTRSAAQRLIAEGQVAVDGKIPTKSLKLAGGETVSVRLPEPE | 0.275 |
| HMQDNLKKYMDKLSQRDAELIVYKYLWNMSEKEISEMFHIKQEQVHVYVGRAKKRLFKIIKKEME | -0.025 |
| HMTIEEMAIENINFSTQLLYKAMKYNGVNTVGDLLEKARSKKDLLTMAYIGNKEAEEIIEKLSELGITI | -0.23 |
| HMTDAYEVLDLNREASDEEIKKRYRELIREHHPDTLIAKGVPQEFVDLANDKMAAINAAYDRIEKDRGL | 0.279 |
| HMSDPELAIPRVVGLSGNDAQAALVKAGFSAVTVVTVKNSEVTSEQVTHVVPAEGAKAKASTPVTVVVSSS | -0.0196 |
| HMPTQTEELRRRIVADVNAGEPGAKLGSERELAERYGTSRSSLRQVLAALQEAGLIDRVIGRSGGIFISH | -0.0372 |
| HMDNIGKTLGQNQTRQYKVAYAEAAKLPAIIMGLVPLPKPPVVDERLRSLYVTATPEQHRQIETLMNRI | 0.11 |
| HMDGTEVTTEPPGAQVEYEGKQFGPTPARIPGLVAGKSLHITLPGYLEVKPKIKAVPKDGEPLSFTLTAI | 0.0823 |
| HMELNILELKSKERKISLEDHLYIKSFNFDNETNEYFYRLAFNSSKDLKNFKATINNDKTISIINFEI | -3.16 |
| HMLNPLLLPFVEAEDFQVKLEILAAMEGKVGEEDLDILYEALDLPKMTGNIEEQIHSIKQYIEMRK | -1.15 |
| HMDTEIGDILALRQIMELLDEKDRQLIIMRYFQGLTQSVTAKNLNMTQVQVSRREKKLLTFMREQLL | -0.739 |
| HMTEAIDVPNLVGQNYSDVKSNSSYKFNWDIINVYDSGKPEGEIIKQEPEAGSKKVKENAVITLTVN | 0.278 |
| HMRGDQLREHLLWTAKDVFLELGFERASMDAVAARAETSKRSLYAHFESKEKLFLAVIDLVRG | -3.67 |
| HMNQYALTDREKNVLGLLVDGLSYKMIADKENISFHTVNAHVRKIYEKLHVHSLAEAVSKALKENL | -1.29 |
| HMTLYQIGDKVVHPMHGAGVIDSVVQRKVSGQVQEFYLLKLSVGNMVVMVPTDNTGEIGMRP | -1.01 |

| Sequence | soluble fraction (log2) |
| --- | --- |
| HMFEDEPSEREIRISTLLAAFLKQEDGGTAVSRERFLKENSDVAEDLQILLEMADMIQEMAGP | -0.418 |
| HMTEPLTKREKEVLLLLPRGLTAKAMASELFLTEATIKSHLAAIFRKFKVVNRTQAIAIAVESKILT | -2.33 |
| HMNNWRRSLEREVTASLARGDRDIFDGLNRSFEAALITKALEHTGGRRIEAATLLGIGRNTLTRKIQDLGL | -1.83 |
| HMKNVENIILEQLKKNIYDDLNNASFEEIILIDAEKSIYKGTIKANYIEYNFKINLSTGEILKWKLK | -0.117 |
| HMGRENGTVKWFNTSKGFGFITRDDGGDVFVHFRSIQGEGHRALQEGQRVSYVVANRDKGLQAEDVTILN | 0.131 |
| HMTEKIEWYKEVLDLEPNSKIFFPLAKMLEKEGELEEARRVLAEGVSRHEEFLEARLFYISVLSRL | -0.169 |
| HMDRAIAAHLEARVRDALKQLSPEQTRVIELFFFDNKTHAEIENDLKIPLGTVKSRLRLALNKLRASL | -1.96 |
| HMDTNRIIGNKIYQLRRSINMTQQELAEKVGISVTFLSEIENGRKSMSVDTLIKLSKGLQVSLDTIVF | -1.46 |
| HMTQMSVLFSELEAKDAATIADKLRERNIPYELSNNGSTILIPQEVLHDTRLSLASEGLPES | -0.0936 |
| HMSEIYVDDINRKILYLLSQGIKTKSLLEHIPLSMSGIEKRKKQLKMLFSVEDGKDETLLEMAKEKGF | -1.45 |
| HMQAALEVQASAGVLAPVPPDQRQALLDTLAQDPRPGYQHEAGRVYGFPFGGFEVRFTVSDGLLTVLSAYK | -1.7 |
| HMIERKLRKKEHFIASVGEKVKIKNFATETYKGELISADNEKVVVETEFGKEEITYDNILAAATYFE | -0.135 |
| HMARGLRPVPSVFGLDVRQATRTLYAAGFQVSIARGSDVRTRPAAGTLLRVGSTVQLEMPRMESA | -1.54 |
| HMSSVVARRARIATLVVETSVASQEELGRLLADEGITVTQATLSRDLDALGAVKVLSADGGTRYRIPGQ | -0.778 |
| HMAGSGDLNAKYLASIPAPMKAKILKAVANHYGVSISEFEEEVTDKDAEALYEYIPTRSMAVQVLRDMKG | -0.373 |
| HMSHFSERLKSLRQQSSITQAKLADDLNVTKSLISMYESGQRLPSFEMLETIADYFNVPLSSLV | -0.089 |
| HMKRELFVEPGMRLEHTPSKTSGPVVSFIEGVIVVIKDQLGSEHRFDPVPGFFRHEGDLVALRSPLL | -0.282 |
| HMNKNIKIPNISNLSREDAESVLKESGISVSTEIKEVESDTIEKGKVVKTEPSIGSTVKQGRTITIYISSG | 0.0574 |
| HMADENIELRKAGLKVTLPRVKILQILEAAKEPHMSAEDVYKALMEANEEVGLATVYRVLTQFESAGL | -0.267 |
| HMNEKFNVYPIPVYNNLNITGLSKPVTYLISSIDGKTIKNGVFQESIDVSDLKSGLYFLQVETKDPVKFIK | -0.658 |
| HMINVGYKFKQIRENAGLTLKQVSAMSGLSVSFISQIERGVVDPSWSSLKKISAALNIKLKDLF | -1.78 |
| HMTMVKYRYLTDGELKEFEEEFKHFLIANGLHSEEWERLNNEDSNKAIEVVALFSNLILDKV | -1.54 |
| HMERLSVSMGDMVVFVRDAVEAFRGLVKEKGITLTFESKVEHFYMNYDHDKVYKVVNNLLSNAVKFT | -0.209 |
| HMDEYTREQFVADMEEGRVREVTIHPNSEVPTGYIRVELANGADMKLYVTDIVEAEELVRSYGFDPPVRDV | 0.128 |
| HMSKNDLAGDEADVYKLLSVETGKPISDLVNRLPFGKSKTREILNTLAEKGFVYISGSGRGTKYHR | 0.0557 |

From the domain aggregation screens of Martell et al. (2025)
